Molecular target: CBLB (UniProt Q3TTA7)
Test: anti-CBLB IP, dectin-1 blot
Conditions: reference: wild-type Flag-dectin-1; sites Y15

“dectin-1 (from UniProt Q6QLQ4) Flag-dectin-1 Y15F” was tested, and the “binding against the reference” value was “lost”.

Reference: article PMC4975523
